# Experimental data as given in article PMC7064531 (2020).
# Where no end group is shown, it is not given here. [ ]: non-standard residue; d: D form. pY = N[C@@H](Cc1ccc(OP(=O)(O)O)cc1)C(=O)O
# T1: E6AP AZUL (amino-terminal zinc-binding domain of ubiquitin E3a ligase), amino acids 24 to 87 (human, UniProt Q05086 24-87)
# T1 chain: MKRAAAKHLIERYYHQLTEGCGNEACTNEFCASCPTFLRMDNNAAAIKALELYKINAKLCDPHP
# Experiments:
# [1] = molecular target: T1, E6AP AZUL (amino-terminal zinc-binding …); test: SPR
# [2] = molecular target: T1, E6AP AZUL (amino-terminal zinc-binding …); test: ITC
# [3] = molecular target: T1, E6AP AZUL (amino-terminal zinc-binding …); test: ITC
# [4] = molecular target: T1, E6AP AZUL (amino-terminal zinc-binding …); test: ITC; Y326 phosphorylated
# [5] = molecular target: T1, E6AP AZUL (amino-terminal zinc-binding …); test: ITC; Y326 phosphorylated
binder,measurement,setting,value
GST-hRpn10^305–377 (domain or fragment) SADIDASSAMDTSEPAKEEDDYDVMQDPEFLQSVLENLPGVDPNNEAIRNAMGSLASQATKDGKKDKKEEDKK,koff,[1],0.0211 s⁻¹
EEDDYDVMQDPEFLQSVLENLPGVDPNNEAIRNAMGSLASQATKD [hRpn10^322–366 peptide],Kd,[2],18.2 nM
same,Kd,[3],18.2 nM
EEDD[pY]DVMQDPEFLQSVLENLPGVDPNNEAIRNAMGSLASQATKD (not fully specified) [hRpn10^322–366 peptide with Y326 phosphorylated],Kd,[4],189 nM
same,Kd,[5],189 nM
